The values that follow come from US20210238276A1 (INTEGRAL MOLECULAR, published 2021).

Common to all, as to experiment: flow cytometry, alanine-scan library in HEK-293T
On the technique in general: A flow cytometer gives signals particle by particle.

One assay deals with T1, hsGLUT4 Y159A (human, UniProt P14672 1-509).
T1 sequence: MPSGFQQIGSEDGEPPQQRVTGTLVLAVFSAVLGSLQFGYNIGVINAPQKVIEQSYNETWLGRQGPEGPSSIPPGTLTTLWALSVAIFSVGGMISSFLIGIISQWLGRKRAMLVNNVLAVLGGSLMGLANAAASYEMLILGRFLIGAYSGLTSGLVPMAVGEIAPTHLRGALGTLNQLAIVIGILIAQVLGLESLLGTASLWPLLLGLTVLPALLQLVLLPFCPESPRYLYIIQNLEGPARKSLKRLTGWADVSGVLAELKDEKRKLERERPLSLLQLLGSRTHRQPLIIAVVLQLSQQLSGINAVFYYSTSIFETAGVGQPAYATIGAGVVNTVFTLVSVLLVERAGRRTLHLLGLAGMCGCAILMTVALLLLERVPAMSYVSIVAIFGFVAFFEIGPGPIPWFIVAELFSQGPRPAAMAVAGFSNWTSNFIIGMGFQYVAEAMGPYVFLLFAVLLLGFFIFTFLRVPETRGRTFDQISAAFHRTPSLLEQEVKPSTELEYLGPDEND
On the procedure: (§1) Because of the state-dependence of the isolated MAbs, we next wished to understand the mechanism by which each MAb could recognize GLUT4 in its different conformations. The residues required for binding of each MAb were determined using shotgun mutagenesis comprehensive alanine scanning (Davidson E & Doranz B J (2014) A High-Throughput Shotgun Mutagenesis Approach to Mapping B-cell Antibody Epitopes. Immunology, which is hereby incorporated by reference in its entirety). All residues of hsGLUT4 were individually mutated to alanine, with existing alanines changed to serines. Mutations were obtained for 508 of the 509 residues of GLUT4 (excluding the initiating methionine). The entire mutation library was transfected into human HEK-293T cells in a 384-well array format (one clone per well) and assessed for immunoreactivity using high-throughput flow cytometry.
(§2) HEK-293T cells were transfected by CaPO₄ with plasmids in 6-well culture plates (Falcon) at 750,000 cells/well. At 48 hours post transfection, cells were stained with anti-V5 and anti-GLUT4 MAbs (purified scFv, 2 μg/ml) followed by biotinylated goat anti-mouse or human antibody (1:500) and streptavidin-PerCP (1:500). Fluorescence was detected using an Intellicyt high-throughput flow cytometer (HTFC; Intellicyt, Albuquerque, N. Mex.). For cell permeabilization, cells were treated with saponin at 0.1% in PBS for 20 minutes. To discriminate intact (live) and permeabilized (dead) cells without the use of detergent, propidium iodide (PI) was added to HEK-293T cells at 1 ug/ml just prior to flow cytometry. Where indicated, cytochalasin B (Sigma) was used at a final concentration of 10 uM and phloretin (Sigma) was used at a final concentration of 100 uM, each added in 10% NGS for 30 minutes prior to antibody staining as well as included with the primary antibody.

The target of another assay is T2, hsGLUT4 I163A (human, UniProt P14672 1-509).
T2 sequence: T1 sequence with A159Y, I163A
The procedure: as §1, §2

Another assay addresses T3, hsGLUT4 Q298A (human, UniProt P14672 1-509).
T3 sequence: T1 sequence with A159Y, Q298A
The procedure: as §1, §2

The target of the next assay is T4, hsGLUT4 S310A (human, UniProt P14672 1-509).
T4 sequence: T1 sequence with A159Y, S310A
The procedure:
as §1, §2

Changes are numbered by the printed parent chain.

With 1F8 (antibody), the % of binding to wild type GLUT4 with hsGLUT4 Y159A turned out to be 96%; with hsGLUT4 I163A it was 91%; with hsGLUT4 Q298A, 87%; with hsGLUT4 S310A, 93%.

B1: AB111 (Fc fusion)
scFv: ALTQPSSVSANPGETVKITCSGSGSWYGWFQQKSPGSAPVTVIYSNDKRPSDIPSRFSGSKSGSTSTLTITGVQVEDEAVYYCGNWDIFGAGTTLTVLGQSSRSSGGGGSSGGGGSAVTLDESGGGLQTPGGALSLVCKASGFTFSSHGMGWVRQAPGKGLEWVASISTGRYTFYAPAVKGRATISRDNGQSTVRLQLNNLRAEDTATYYCTKCAGLNGCGGGEIDAWGHGTEVIVSS
notes: Bivalent scFv-Fc; also called MAb AB111; not shown: Fc fragment of human IgG1, cloned in frame with the scFv
Consider B1, for which the “% of binding to wild type GLUT4” value in the assay with hsGLUT4 Y159A is 88%; in the assay with hsGLUT4 I163A, 87%; with hsGLUT4 Q298A, 145%; with hsGLUT4 S310A, 130%.

B2: AB108 (Fc fusion)
scFv: ALTQPSSVSANLGGTVKITCSGSSGSYGWYQQKAPGSAPVTLIYRNDKRPSDIPSRFSGSESGSTGTLTITGVQAEDEAVYFCGGYDSSAGYAAFGAGTTLTVLGQSSRSSGGGGSSGGGGSAVTLDESGGGLQTPGGALSLVCKASGFTFSSHGMGWVRQAPGKGLEWVGSISTGRYTFYAPAVKGRATISRDNGQSTLRLQLNNLRAEDTGTYYCTKCAGLNGCGGGEIDAWGHGTEVIVSS
notes: Bivalent scFv-Fc; also called MAb AB108; not shown: Fc fragment of human IgG1, cloned in frame with the scFv
Take B2: the “% of binding to wild type GLUT4” value stood at 46% with hsGLUT4 Y159A, 90% with hsGLUT4 I163A, 78% with hsGLUT4 Q298A and 97% with hsGLUT4 S310A.

B3: AB101 (scFv)
scFv: ALTQPSSVSANPGETVKITCSGSSNSYGWYQQKSPGSAPVTVIYYNDKRPSDIPSRFSGSKSDSTHTLTITGVRAEDEAVYFCGSYDSTYVGIFGAGTTLTVLGQSSRSSGGGGSSGGGGSAVTLDESGGGLQTPGGTLSLVCKASGFTFSSNAMGWVRQAPGKGLEWVAGISSDGRYTKYGSAVKGRATISRDNGQSTVRLQLNNLRAEDTGTYFCAKAFGNNYRRIYAGQIDAWGHGTEVIVSS
notes: Chicken-derived clone used as a control; the four lead clones were tested as scFv-human IgG1 Fc; also called MAb AB101
On to B3, for which the “% of binding to wild type GLUT4” value with hsGLUT4 Y159A is 122%; with hsGLUT4 I163A it was 115%; with hsGLUT4 Q298A it was 107%; in the assay with hsGLUT4 S310A, 101%.
